Results published in PMC11021452, “Exposing the molecular heterogeneity of glycosylated biotherapeutics” (Nature Communications, 2024).

T1: IL-22 RA1 extracellular domain (ECD) (UniProt Q8N6P7 16-228)
T1 construct: Coated on the ELISA plate; also called IL22 receptor; IL22R1A
T1 sequence (looked up): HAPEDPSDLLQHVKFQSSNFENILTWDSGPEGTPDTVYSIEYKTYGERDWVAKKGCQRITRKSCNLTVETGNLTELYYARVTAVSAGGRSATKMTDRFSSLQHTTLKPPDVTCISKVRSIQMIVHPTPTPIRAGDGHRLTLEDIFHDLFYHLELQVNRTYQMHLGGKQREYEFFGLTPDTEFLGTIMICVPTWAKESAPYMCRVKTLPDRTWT


Molecular target: T1, IL-22 RA1 extracellular domain (ECD)
Assay: ELISA; 96-well plate coated with IL-22 RA1 ECD; varying concentrations of IL22-Fc added in duplicate; bound IL22-Fc detected with goat anti-human IgG-HRP and TMB; potency by parallel curve program relative to the reference standard
Conditions: both partners purified

| fold change in binding against control IL22-Fc [fold] | fold change in potency (binding ELISA) relative to wild type [fold] | Binder |
| --- | --- | --- |
| ~2 |  | enzymatically desialylated IL22-Fc (Fc fusion, UniProt Q9GZX6 34-179, looked up, N-linked glycans with the sialic acids enzymatically removed, IL22 cytokine of the IL22-Fc fusion UTTR1147A, same chain as m1; Same polypeptide as m1; differs only in the glycans; also called sialidase-treated IL22-Fc; source: IL22-Fc from cell culture fermentation, purified, then enzymatically desialylated) APISSHCRLDKSNFQQPYITNRTFMLAKEASLADNNTDVRLIGEKLFHGVSMSERCYLMKQVLNFTLEEVLFPQSDRFQPYMQEVVPFLARLSNRLSTCHIEGDDLHIQRNVQKLKDTVKKLGESGEIKAIGELDLLFMSLRNACI |
|  | 3.98 | IL22-Fc N21Q point mutant (Fc fusion, UniProt Q9GZX6 34-179, looked up, N-linked glycans; the glycosylation site at N21 knocked out, IL22 cytokine of the IL22-Fc fusion UTTR1147A with N21Q; Parent is m1; source: 10 day CHO cell culture fermentations, SP Sepharose Fast Flow ion exchange chromatography) APISSHCRLDKSNFQQPYITQRTFMLAKEASLADNNTDVRLIGEKLFHGVSMSERCYLMKQVLNFTLEEVLFPQSDRFQPYMQEVVPFLARLSNRLSTCHIEGDDLHIQRNVQKLKDTVKKLGESGEIKAIGELDLLFMSLRNACI |
